For one molecule, neutralization potency on HEp-2 cells, fold against control I results are on record in patent publication US20140271653A1.

Assay [1] addresses RSV-F of RSV subtype A lab strains. Briefly: cell-based or functional assay.
The target of assay [2] is RSV-F of RSV subtype B lab strains. Briefly: cell-based or functional assay.

Several values for one entry are separate records, joined by “and”; a condition that tells them apart may be missing. Identical values can stand only once.

B1: H1H3592P3 (antibody, V domains shown)
VH: EVQLVESGGDLVQPGRSLRLSCVASGFTFDDYAMHWVRQAPGKGLEWVSGVSWSGSTVGYADSVKGRFTVSRDNAQKSLYLQMNSLRAEDTALYYCVKDAYKFNYYYYGLDVWGQGTTVTVSS
VL: EIVMTQSPATLSVSPGERATLSCRASQTILSNLAWYLQKPGQAPRLLIYGASTRATGLPARFSGSGSGTEFTLTISSLQSEDFAVYYCQQYNNWPLTFGGGTKVEIK
In the case of B1, the neutralization potency on HEp-2 cells, fold against control I in assay [1] is 15 fold and 17 fold; in assay [2] it was 2 fold and 5 fold.
